Substitutions are numbered along the chain they refer to.

Experiment [1] has as its target T1, rHuman Erythropoietin R/Fc Chimera, CF (R&D Systems Cat#963-ER) (human, UniProt P19235 25-250).
T1 construct: Bought reagent; also called EPO R/Fc; Epo R; Fc part of the bought chimera not given
T1 sequence: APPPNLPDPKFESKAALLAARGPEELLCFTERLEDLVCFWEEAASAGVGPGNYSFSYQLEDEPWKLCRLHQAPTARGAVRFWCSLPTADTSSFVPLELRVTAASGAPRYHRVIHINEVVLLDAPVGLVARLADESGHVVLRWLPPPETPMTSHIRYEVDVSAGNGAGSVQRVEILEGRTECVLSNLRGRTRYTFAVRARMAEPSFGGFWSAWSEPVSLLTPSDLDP
In words: ECL (MSD multi-spot), antigen spotted on plate; Fab 22 nM; blank spot 289.

The target of experiment [2] is T2, Recombinant Human DLL4 (R&D Systems Cat#1506-D4/CF) (human, UniProt Q9NR61 27-524).
T2 construct: Bought reagent; also called delta-like protein 4
The experiment is described as above.

For experiment [3], the target named is T3, rHuman Notch-1/Fc Chimera, CF (R&D Systems Cat#3647-TK) (human, UniProt P46531 19-526).
T3 construct: Bought Fc chimera; Fc part of the bought chimera not given
The experiment in a line: MSD ECL titration, Fab 2383 nM, blank 344.

For experiment [4], the target named is T4, rHuman CD44/Fc Chimera, CF (R&D Systems Cat#3660-CD) (human, UniProt P16070 21-220).
T4 construct: Bought Fc chimera; Fc part of the bought chimera not given
The experiment in a line: MSD ECL titration, Fab 2383 nM, blank 344.

Experiment [5] has as its target T5, rHuman IGF-1 sR (insulin-like growth factor-1 soluble receptor), CF (R&D Systems Cat#391-GR) (human, UniProt P08069 31-932).
T5 construct: Bought soluble receptor; also called IGF-R1
In words: MSD ECL titration, Fab 2383 nM, blank 344.

Experiment [6] addresses T6, rHuman P-Cadherin/Fc Chimera, CF (R&D Systems Cat#861-PC) (human, UniProt P22223 108-654).
T6 construct: Bought Fc chimera; Fc part of the bought chimera not given
The experiment in a line: MSD ECL titration, Fab 2383 nM, blank 344.

In experiment [7] the target is T7, rHuman Erythropoietin R/Fc Chimera, CF (R&D Systems Cat#963-ER) (human, UniProt P19235 25-250).
T7 construct: Bought Fc chimera; also called EPO R/Fc; EPOR; Fc part of the bought chimera not given
T7 sequence: T1 sequence
The experiment in a line: MSD ECL titration, Fab 2383 nM, blank 344.

In experiment [8] the target is T8, Recombinant Human DLL4 (R&D Systems Cat#1506-D4/CF) (human, UniProt Q9NR61 27-524).
T8 construct: Bought recombinant protein; also called rHuman DLL4; delta-like protein 4
The experiment in a line: MSD ECL titration, Fab 2383 nM, blank 344.

In experiment [9] the target is T9, rHuman ErbB2/Fc Chimera, CF (R&D Systems Cat#1129-ER) (human, UniProt P04626 23-652).
T9 construct: Bought Fc chimera; also called HER2/neu; Fc part of the bought chimera not given
In words: MSD ECL titration, Fab 2383 nM, blank 344.

Experiment [10] concerns the target T10, rHuman EGF R/Fc Chimera, CF (R&D Systems Cat#344-ER) (human, UniProt P00533 25-645).
T10 construct: Bought Fc chimera; Fc part of the bought chimera not given
In words: MSD ECL titration, Fab 2383 nM, blank 344.

In experiment [11] the target is T11, rHuman HGF R/c-MET/Fc Chimera, CF (R&D Systems Cat#358-MT/CF) (human, UniProt P08581 25-932).
T11 construct: Bought Fc chimera; also called HGF R/Fc; Fc part of the bought chimera not given
In words: MSD ECL titration, Fab 2383 nM, blank 344.

Experiment [12] deals with T12, rHuman IGF-1 sR (insulin-like growth factor-1 soluble receptor), CF (R&D Systems Cat#391-GR) (human, UniProt P08069 31-932).
T12 construct: Bought soluble receptor; also called IGF-R1
In words: ECL (MSD multi-spot), antigen on plate, Fab 50 nM.

The target in experiment [13] is T13, rHuman P-Cadherin/Fc Chimera, CF (R&D Systems Cat#861-PC) (human, UniProt P22223 108-654).
T13 construct: Bought Fc chimera; also called CDH3; not shown: Fc of the bought chimera
In words: ECL (MSD multi-spot), antigen on plate, Fab 50 nM.

Experiment [14] addresses T14, rHuman Erythropoietin R/Fc Chimera, CF (R&D Systems Cat#963-ER) (human, UniProt P19235 25-250).
T14 construct: Bought Fc chimera; also called EPO R/Fc; Epo R; not shown: Fc of the bought chimera
T14 sequence: T1 sequence
In words: ECL (MSD multi-spot), antigen on plate, Fab 50 nM.

The target of experiment [15] is T15, Recombinant Human DLL4 (R&D Systems Cat#1506-D4/CF) (human, UniProt Q9NR61 27-524).
T15 construct: Bought recombinant protein; also called delta-like protein 4
The experiment in a line: ECL (MSD multi-spot), antigen on plate, Fab 50 nM.

Experiment [16] deals with T16, rHuman ErbB2/Fc Chimera, CF (R&D Systems Cat#1129-ER) (human, UniProt P04626 23-652).
T16 construct: Bought Fc chimera; also called HER2/neu; not shown: Fc of the bought chimera
In words: ECL (MSD multi-spot), antigen on plate, Fab 50 nM.

Experiment [17] concerns the target T17, rHuman EGF R/Fc Chimera, CF (R&D Systems Cat#344-ER) (human, UniProt P00533 25-645).
T17 construct: Bought Fc chimera; also called ErbB-1; not shown: Fc of the bought chimera
The experiment in a line: ECL (MSD multi-spot), antigen on plate, Fab 50 nM.

Experiment [18] concerns the target T18, rHuman HGF R/c-MET/Fc Chimera, CF (R&D Systems Cat#358-MT/CF) (human, UniProt P08581 25-932).
T18 construct: Bought Fc chimera; also called HGF R/Fc; not shown: Fc of the bought chimera
The experiment in a line: ECL (MSD multi-spot), antigen on plate, Fab 50 nM.

In experiment [19] the target is T19, rHuman Notch-1/Fc Chimera, CF (R&D Systems Cat#3647-TK) (human, UniProt P46531 19-526).
T19 construct: Bought Fc chimera; not shown: Fc of the bought chimera
The experiment in a line: ECL (MSD multi-spot), antigen on plate, Fab 50 nM.

For experiment [20], the target named is T20, rHuman CD44/Fc Chimera, CF (R&D Systems Cat#3660-CD) (human, UniProt P16070 21-220).
T20 construct: Bought Fc chimera; not shown: Fc of the bought chimera
In words: ECL (MSD multi-spot), antigen on plate, Fab 50 nM.
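Further: blank spot per well as comparator with Hit at signal to blank ratio of 4 or more.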

B1: Fab VH1-46_IGHD3-10*01_IGHJ4*01 & B3_IGKJ1*01 (Fab, V domains shown)
VH: QVQLVQSGAEVKKPGASVKVSCKASGYTFTSYYMHWVRQAPGQGLEWMGIINPSGGSTSYAQKFQGRVTMTRDTSTSTVYMELSSLRSEDTAVYYCAREYYYGSGSYYNDYFDYWGQGTLVTVSS
VL: not shown
notes: also called IGHV1-46*01
For the molecule B1, the ECL signal turned out to be 2240 in [1] and 342 in [2].

B2: Fab VH1-46_IGHD6-6*01_IGHJ1*01 & L6_IGKJ1*01 (Fab, V domains shown)
VH: QVQLVQSGAEVKKPGASVKVSCKASGYTFTSYYMHWVRQAPGQGLEWMGIINPSGGSTSYAQKFQGRVTMTRDTSTSTVYMELSSLRSEDTAVYYCAREEYSSSSAEYFQHWGQGTLVTVSS
VL: not shown
notes: Expressed in E. coli as Fab: heavy chain with CH1 plus Flag and His tags from Plasmid A, kappa light chain constant region from Plasmid C; also called Fab No. 1
Take B2: the ECL signal in experiment [3] amounted to 690; in [4], 559; in experiment [5], 527; in experiment [6], 728; in experiment [7], 658; in experiment [8] it was 11800. For the same molecule, the ECL signal in experiment [9] turned out to be 454; in [10], 621; in experiment [11] it was 762.

B3: Fab VH1-46_IGHD6-6*01_IGHJ1*01_S102A_S103P_S104F & L6_IGKJ1*01_S30N (Fab, V domains shown)
VH: B2 VH with S102A, S103P, S104F
VL: EIVLTQSPATLSLSPGERATLSCRASQSVNSYLAWYQQKPGQAPRLLIYDASNRATGIPARFSGSGSGTDFTLTISSLEPEDFAVYYCQQRSNWPPWTFGQGTKVEIKR
notes: Fab
B3: the ECL signal in [12] worked out at 240 ECL signal; in experiment [13] it was 143 ECL signal; in experiment [14] it was 500 ECL signal; in experiment [15], 37200 ECL signal; in [16], 395 ECL signal; in experiment [17], 294 ECL signal. Moreover, the ECL signal in experiment [18] turned out to be 135 ECL signal; in experiment [19] it was 279 ECL signal; in experiment [20] it was 271 ECL signal.

The values above are taken from US20120058906A1 (published 2012).
